Data on 50 sequences can be found in the domain aggregation screens of Martell et al. (2025).

This series can be described thus: soluble fraction after stress (log2 fold change); higher = more stays soluble; pooled small domains, quantitative proteomics. The conditions noted are these: stress: 50 degC. The gist of the method: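 The stress applied to every library was 50°C. These custom libraries of small protein domains were pooled and measured at high throughput with quantitative proteomics as the read-out. Aggregation propensity is expressed as the base-two logarithm of the fold change in how much of each protein remains soluble. The higher the value, the more of that protein stays in solution.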
Take “HMEEEPALLRDLLAKTLEFGLIPQLSHHPALADRTQQLASAVRAAGSASALRNAAASLKSLWIDVDQ”: the “soluble fraction (log2)” value is -0.0318.

In the case of “HMEEFDLNAYITKINSAATLNALKQAYAEANSAALSVKDKDAQRKIIVEKDKRKAELIQETAG”, the “soluble fraction (log2)” value was 0.31.

As for “HMEEIALTDILNRFLSSLSLEQRKIFMRRYWYLSPIKEIATEYGMSESKIKMSLFRSRNELKKLLEKEGI”, the “soluble fraction (log2)” value was -0.396.

In the case of “HMEEINTAPVFKNIIEIAEYAKTKFTTVEEIPKMIEFIETANSKLDNPHDEESVNELINALSTNIRKNV”, the “soluble fraction (log2)” value is 0.193.

As for “HMEEITLIAEDEGLRLDTWLTDKLKDYSRSYIQKLMEDELVLVNGKARKANYRIKTGDEIHVSIPEPE”, the “soluble fraction (log2)” value was -0.0342.

For the sequence “HMEELLVAVKADGSIWADGRPITPDGLASFIDSKPADAVLNLAVDKKAPFAAFVKVVDVAKEKKSGRFVIR”, the “soluble fraction (log2)” value came out at 0.0577.

As to “HMEELPIIVAQRFLNIFRQLHIFSDERREAFNKMLLELPPEVKSIFQSLPGGTPLQEYMEDLEQKSK”, the “soluble fraction (log2)” value is -0.055.

Take “HMEELTPLQKYVFDYESDISDEVDMRAIKGLENANDVYDYYANVRGWEGDPDLEDDLDNIYRQVKARFA”: the “soluble fraction (log2)” value was 0.0161.

For “HMEEMTIRQKRTMIFFIEATKHILQEDGYDHLTIREIAQRAGYNAATLYHYFRDLDELIIYGSVG”, the “soluble fraction (log2)” value is -0.238.

As to “HMEEPEELYRVKILIYNLLVRNGPGILYTRLRRADYPGEYGIYEEKNGYGKISATLSEWISLNTEYVQRLD”, the “soluble fraction (log2)” value is -2.

Take “HMEEVYVPDIRDKSISDAKKILSQMGLKYRIEGEGYDDSTVIKDQTPKPGALLAKDSVVIAYINE”: the “soluble fraction (log2)” value stood at 0.126.

As for “HMEEYLENLTQSKLLHMLDQLSPAYKTVFTLFVLDELSHEEISKMLNISIGTSKSNLFRARKVMRVLMESE”, the “soluble fraction (log2)” value is -0.397.

With “HMEFDIDAAIHAALEPQAVMRAWFGHEGREYPEDFGVVFFRGWESFTHQEKVEAVRDAKKVLDRAVR”, the “soluble fraction (log2)” value was -0.516.

With “HMEFDSLINYEVKKKETLFSISKKFKIEINDLLSFNTELKNNKLKKNSIIIIPLKKKIVESQNFEKQKIID”, the “soluble fraction (log2)” value was -1.37.

Consider “HMEFENIEQRKQYWSDLYRELKAGQDAYAKELKKGTEGYTQDELDILKEFTDEAKKQMEAAGVEATDEFAS”, for which the “soluble fraction (log2)” value was -0.187.

Take “HMEFLLAIQPFVLLTDHANLTFLREQTDSMMKRIQINISGFEIEFRYVPGLTNILPDKMSRV”: the “soluble fraction (log2)” value was -0.0431.

For the sequence “HMEFQEQLYRLRKQAGLSQEELSHIIGVSRQAVQKWEAGSARPDLDNLIALASHFKLSLDQLVGLT”, the “soluble fraction (log2)” value was -0.555.

Regarding “HMEFQSIGGKIRIGREREHLTQAELAQKLSVTRQAVSNWERDKTLPDIYMIREIAEIFGLTLDEFMEGAKK”, the “soluble fraction (log2)” value was -0.672.

With “HMEGDAFAFTGDIQKDLLSITAVHPMRREAVDALIAKAGASWAIVEKLLAHGELTEAKHDGHLFYLRKF”, the “soluble fraction (log2)” value is -0.81.

With “HMEGIAEILPASVRQKYGLIGLYDALRGLHFPGNMEEIKAARQRLAFEDTLMFSLTLSMMQYS”, the “soluble fraction (log2)” value was -0.0198.

Take “HMEGIAYDINTAPEHIDLKAEDMMATFNIGKTALWRWVKQKILPPPYEYRSQAAHWTIGQIRDWKTA”: the “soluble fraction (log2)” value is -0.0672.

As to “HMEGLDDKTKIILFAGDKKEQEYSLADLKSKLNITENLTESELIKLLEKQGYVLDVNANNEFMFKKD”, the “soluble fraction (log2)” value is -0.0985.

As to “HMEGNFFADIRQELMRELDQEAEWSDVQILEKIDDLVLLRTRRSSLTVNEKEQLRKELFYSVRK”, the “soluble fraction (log2)” value is -0.0909.

As to “HMEGRTVMATTAVNVRSGPGTSYKILGVLYPGHTAQQIGNTRYGWAQVTWKGHTAYIAARYLRDS”, the “soluble fraction (log2)” value was -2.41.

With “HMEGSLQEDKVKEYQDRFKEELSNDLNTANSITVLYDLIKDDTLNGTTKRYLIEDFDKILSLDLIKE”, the “soluble fraction (log2)” value came to 0.0632.

“HMEGSVTVMVNGESVTMTGKQNYIFVDVFDWYSFDLSAGKGRAIATLVNGKEAEFSQPLANGDNIELYWKE”: the “soluble fraction (log2)” value is -0.118.

Consider “HMEGTAAAVALKGLMEQSGVDLREVMAAVESRGYYPKGTPFENYDPAFVSGVLVGAWDQVYKMILDQRPIP”, for which the “soluble fraction (log2)” value is -0.217.

For the sequence “HMEGVSPQTVQEHIRRFIAAEDPASPLSDEALREALGNLGINASRRTVAKYRGEMGIPSSAQRKR”, the “soluble fraction (log2)” value is -0.053.

On to “HMEGVSSESVKEMLKSIIDGEDPHNPVSDQRITDILNSRGINISRRTVAKYRDELGIASSSRRKRY”, for which the “soluble fraction (log2)” value was 0.0818.

For the sequence “HMEGYLYLSESQNELILKNLKTPLKYNLYNASGKLIKKGNIKNTLDISELPKGVYIFTSSDNSFSKKFLKT”, the “soluble fraction (log2)” value is -0.0444.

For the sequence “HMEHAETDTRERILVVAERLFRQLGYQKTTVADIAKELRMSPANVYRFFDSKKSIHEGVARTL”, the “soluble fraction (log2)” value was -0.228.

For “HMEHETTQLELNAPGQRLDAALALALPDTSRAQIQQWIKQGLVTDQAGTALLQASLKLKSPLNVVLQRPI”, the “soluble fraction (log2)” value is 0.178.

Turning to “HMEHIDVSGRAFDVSVSRLKRARRLTMRIDTHKQLVKISAPLHVESSTIRAFLARNQNWLEQQVEKR”, the “soluble fraction (log2)” value is -0.881.

For “HMEHLTATERHLVAYLEAHLGQVPSLSITKLSQEANVSTASIVRTMKKLGYDGFTAFKHAIKQQLR”, the “soluble fraction (log2)” value is -1.77.

On to “HMEHTPHGVALLRTLMDQYGLKAADLANELGSKSNVSNILNGRRALTVSHIKMLAERFNLPADAFI”, for which the “soluble fraction (log2)” value was -0.914.

Consider “HMEIALNDKQILLFSNKLVHEPSFASKYSKVGESYDDFAIRISENLTIPDKVQEYLPYLEKVGFNI”, for which the “soluble fraction (log2)” value was -0.00852.

As to “HMEIDDPWLILGINAGSSIEIAQKAWKDLASQNHPDKLIANGVPKELLGMANEKLAIINGAYDKILKAHKI”, the “soluble fraction (log2)” value was -0.262.

For the sequence “HMEIETPEIRAIHDLLELLANKAKKPEQEQFVQAHPEVQWAKVEANKNGTFAVGKVKAYLKTLQA”, the “soluble fraction (log2)” value is -0.308.

In the case of “HMEIGNVIAKLRVSNGLNQREFAKKLEVSNGAVAMWETNKRQPDLEMIKKISNLFDVPTDYILGAGTFQ”, the “soluble fraction (log2)” value was -0.458.

On to “HMEIIFVEHKVRPGESVWLIARKYKVKKNHILAVNNLSEKSIIRPKQILKIPTSGYDQYKKSVE”, for which the “soluble fraction (log2)” value is -3.22.

For “HMEIIMIVITKPSITDERIAEIVAVIERNGGVQAHVSKGTDRTVIGIIGKAEPTLAEHLRQMKGVENVIKI”, the “soluble fraction (log2)” value turned out to be 0.0636.

As for “HMEIPMRDKLKTYIDYLFAGAPQTAATAETKAEILQNTLDKYDDLIAEGKTPEAAYSLAVSGIGDLGDF”, the “soluble fraction (log2)” value is -0.0827.

“HMEIPTEEILKQKLYYSISEVASWFKVNTSLLRYWENEFDILQPRKTRKGDRLFRVEDIKNLQLIYLL”: the “soluble fraction (log2)” value came out at 0.107.

With “HMEITGKYKAKEDIKLKVIPLISSLDLQDIKQNTELEVKDTMNNWAYVTVQEKQGWVVLEKIEKVE”, the “soluble fraction (log2)” value was -0.0549.

Consider “HMEITTLTGVLGAGRLDSALAAALPQYSRARIQALISDAALRINGQVVADAGSKKMSGQTFELNIPAPVP”, for which the “soluble fraction (log2)” value is -0.31.

“HMEKDEYIFVDIDGAVFNPGVYKLIAGSRVIDAINLAGGLKEKAFTQNLNKARKLVDGEKIYIYLEGDEE”: the “soluble fraction (log2)” value was -0.585.

In the case of “HMEKDRDKRIRKRVLTALKRNDKKMTDKAFALLTSRIRDESILDQEVLKLIGYVGDRTTIDSKDINIVVAE”, the “soluble fraction (log2)” value came out at 0.0525.

Consider “HMEKEEELNSIRPDLDGNDIMEILGVPAGPKVGKAYNYLLNVRLDEGPLSRAEAISRLEAWWENQ”, for which the “soluble fraction (log2)” value was -0.368.

“HMEKELVSDFASRISTARSSKGWNHAELGKRMAETVNVIKSAESGKPPTDSVVKKLERVLGITLMEV”: the “soluble fraction (log2)” value was -0.17.

Regarding “HMEKEYMKNVVGMEYRQARVLLGDMGLELAFQPVYETSDKYPTDVVVSTEPAADQPLTKGQTVILHIST”, the “soluble fraction (log2)” value is 0.288.
